According to article PMC3828522 (Genes & Development, 2013):

Tests used:
[1] = target: biotin-YY1 spacer peptide (human, UniProt P25490 199-228, biotin (position not given)); assay: SPR
[2] = target: full-length Pho protein (EMSA) (Drosophila melanogaster, UniProt Q8ST83 1-520); assay: native gel or EMSA
[3] = target: biotin-Pho spacer peptide (Drosophila melanogaster, UniProt Q8ST83 145-172, biotin (position not given)); assay: SPR
biotin-Pho spacer peptide, sequence (Q8ST83 145-172): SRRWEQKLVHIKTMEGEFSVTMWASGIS

biotin-YY1 spacer peptide, sequence (P25490 199-228): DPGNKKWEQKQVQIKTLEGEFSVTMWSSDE
full-length Pho protein (EMSA), sequence (Q8ST83 whole entry): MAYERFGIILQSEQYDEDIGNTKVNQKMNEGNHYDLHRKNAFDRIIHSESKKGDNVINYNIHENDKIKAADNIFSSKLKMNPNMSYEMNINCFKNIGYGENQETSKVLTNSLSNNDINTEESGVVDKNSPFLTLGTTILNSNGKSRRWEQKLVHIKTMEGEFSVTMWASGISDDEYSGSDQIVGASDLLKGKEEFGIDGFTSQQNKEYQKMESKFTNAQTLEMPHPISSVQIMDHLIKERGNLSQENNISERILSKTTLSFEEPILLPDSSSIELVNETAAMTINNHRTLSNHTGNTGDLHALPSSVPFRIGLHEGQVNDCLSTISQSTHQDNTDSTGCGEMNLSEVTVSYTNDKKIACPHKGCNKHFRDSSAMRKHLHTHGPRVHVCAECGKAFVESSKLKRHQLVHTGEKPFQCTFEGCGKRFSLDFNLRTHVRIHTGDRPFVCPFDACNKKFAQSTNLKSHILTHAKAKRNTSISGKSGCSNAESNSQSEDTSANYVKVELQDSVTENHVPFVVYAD

fold weaker affinity than the Drosophila complex [1] [fold]	Binder	other results
~50	MBTD1 4MBT domain, human (domain or fragment) AKTKAAVSMEGFSWGNYINSNSFIAAPVTCFKHAPMGTCWGDISENVRVEVPNTDCSLPTKVFWIAGIVKLAGYNALLRYEGFENDSGLDFWCNICGSDIHPVGWCAASGKPLVPPRTIQHKYTNWKAFLVKRLTGAKTLPPDFSQKVSESMQYPFKPCMRVEVVDKRHLCRTRVAVVESVIGGRLRLVYEESEDRTDDFWCHMHSPLIHHIGWSRSIGHRFKRSDITKKQDGHFDTPPHLFAKVKEVDQSGEWFKEGMKLEAIDPLNLSTICVATIRKVLADGFLMIGIDGSEAADGSDWFCYHATSPSIFPVGFCEINMIELTPPRGYTKLPFKWFDYLRETGSIAAPVKLFNKDVPNHGFRVGMKLEAVDLMEPRLICVATVTRIIHRLLRIHFDGWEEEYDQWVDCESPDLYPVGWCQLTGYQLQPPASQSSR	
	Sfmbt 4MBT domain (Sfmbt 531-980), wild type (domain or fragment, Drosophila melanogaster, UniProt Q9VK33 531-980, looked up) DPTHSYDWLPRLSKENFNAAPVTCFPHAPGCEVWDNLGVGMKVEVENTDCDSIEVIQPGQTPTSFWVATILEIKGYKALMSYEGFDTDSHDFWVNLCNAEVHSVGWCATRGKPLIPPRTIEHKYKDWKDFLVGRLSGARTLPSNFYNKINDSLQSRFRLGLNLECVDKDRISQVRLATVTKIVGKRLFLRYFDSDDGFWCHEDSPIIHPVGWATTVGHNLAAPQDYLERMLAGREAMIEVHEDDATIELFKMNFTFDEYYSDGKTNSFVEGMKLEAVDPLNLSSICPATVMAVLKFGYMMIRIDSYQPDASGSDWFCYHEKSPCIFPAGFCSVNNISVTPPNGYDSRTFTWEGYLRDTGAVAAGQHLFHRIIPDHGFEVGMSLECADLMDPRLVCVATVARVVGRLLKVHFDGWTDEYDQWLDCESADIYPVGWCVLVNHKLEGPPRVAH	binding result [2]: binds
	Sfmbt 4MBT S633P/S673P (domain or fragment, Drosophila melanogaster, UniProt Q9VK33 531-980, looked up) DPTHSYDWLPRLSKENFNAAPVTCFPHAPGCEVWDNLGVGMKVEVENTDCDSIEVIQPGQTPTSFWVATILEIKGYKALMSYEGFDTDSHDFWVNLCNAEVHPVGWCATRGKPLIPPRTIEHKYKDWKDFLVGRLSGARTLPPNFYNKINDSLQSRFRLGLNLECVDKDRISQVRLATVTKIVGKRLFLRYFDSDDGFWCHEDSPIIHPVGWATTVGHNLAAPQDYLERMLAGREAMIEVHEDDATIELFKMNFTFDEYYSDGKTNSFVEGMKLEAVDPLNLSSICPATVMAVLKFGYMMIRIDSYQPDASGSDWFCYHEKSPCIFPAGFCSVNNISVTPPNGYDSRTFTWEGYLRDTGAVAAGQHLFHRIIPDHGFEVGMSLECADLMDPRLVCVATVARVVGRLLKVHFDGWTDEYDQWLDCESADIYPVGWCVLVNHKLEGPPRVAH	fold decrease in binding affinity against the wild type [3]: 2 fold
~50	L3MBTL2 4MBT domain, human (domain or fragment) TGQDALVLGFDWGKFLKDHSYKAAPVSCFKHVPLYDQWEDVMKGMKVEVLNSDAVLPSRVYWIASVIQTAGYRVLLRYEGFENDASHDFWCNLGTVDVHPIGWCAINSKILVPPRTIHAKFTDWKGYLMKRLVGSRTLPVDFHIKMVESMKYPFRQGMRLEVVDKSQVSRTRMAVVDTVIGGRLRLLYEDGDSDDDFWCHMWSPLIHPVGWSRRVGHGIKMSERRSDMAHHPTFRKIYCDAVPYLFKKVRAVYTEGGWFEEGMKLEAIDPLNLGNICVATVCKVLLDGYLMICVDGGPSTDGLDWFCYHASSHAIFPATFCQKNDIELTPPKGYEAQTFNWENYLEKTKSKAAPSRLFNMDCPNHGFKVGMKLEAVDLMEPRLICVATVKRVVHRLLSIHFDGWDSEYDQWVDCESPDIYPVGWCELTGYQLQPPVAAEPATPLKAKEATKKKKKQ	
